Measured values taken from the DeepSol protein solubility set.

Assay: soluble on expression in E. coli; label from the status in PepcDB or PDB records

Row | Sequence | soluble on expression in E. coli
1 | MSLTNSDWMPTASISQLKQRATLLRQIREFFAERNVLEVETPAMSHATVTDIHLHTFKTEFVGPGYAKGSALHLMTSPEFHMKRLLAAGSGCIYQLGKAFRNEENGRYHNPEFTMLEWYRIGFDHHALMDEMDALLQLVLRCGSAERMTYQEAFLNVLGVCPLEEEMRELKQVAATLGLSDIAEPEEDRDTLLQLLFSIGIEPKIGQITPAFVYDFPASQAALAKINPADPRVADRFEVYFKGIELANGFHELDNPAEQLARFKADNAKRLEMGLTEQPIDYHLIAALEAGLPECAGVALGIDRLIMLALGEDHIDKVTAFPFPRAEGHHHHHH | soluble
2 | MGSDKIHHHHHHMTHYKNNIDEAATLINSEGSAWNAINPESVARMRLQNRFKTGLDIAKYTAKIMREDMDNYDKDTSQYTQSLGCWHGFIAQQKMISIKKHLLTTKRRYLYLSGWMVAALRSEFGPLPDQSMHEKTSVAALIKELYTFLRQADARELGGLFRELDSAKESDKAAIQHKIENFETHVVPIIADIDAGFGNEEATYLMAKQMIEAGACCIQLENQVSDVKQCGHQDGKVTVPHVEFLAKINAVRYAFLELGIDDGVIVARTDSLGAGLTQKIAVTKEAGDLGDLYNSFLEVEAVDAAKLENGDVVFKQGGKLVKPARLPNGLFKFRAGTGEERCVLDCITSLQNGADLLWIETEKPHVSQIGGMVNEIRKVVPNAKLVYNNSPSFNWTLNFRQQVFDAMQKAGQDVSAYDRAQLMSVDYDGTELAIQADEKIRTFQSDSAREAGIFHHLITLPTYHTAALSTDNLAKEYFGDQGMLGYVANVQRKEIRQGIACVKHQNMAGSDIGDAHKEYFSGDQALKASGKDNTMNQF | not soluble
3 | MPSDLIPLIELHQVSKTFGKPVAEHSLQGLLQRLHLTRPKPVTHAVDRVDLRIMRGEVVGLVGESGCGKSTLGRMVAGLLPVSSGVASVDGKPLDSLTTQERKALRLKVQMIFQDPSSSLNPRLRVDRIVGEGALLHGLTDRKGADDYVSAQLQRAGLNPQLRQRYPHQFSGGQRQRIGIARALAVQPELLVCDESVAALDVSIQAQILNLFMDLRDELGLTYLFISHDLGVVEHLCDRVVVMYLGRVVETASVDDLFARANHPYTQALLAQIPRFDIRSTRYDAIQGEIPSPLNPPTGCHFHPRCPHAMARCREEVPALREVSPNHQSACHLNDQR | not soluble
4 | MGSDKIHHHHHHMKEISCGRRTRVSFGKSREPLPIPDLVEIQKSSYRRFLEEGLLEVLKKFSPIYSQATRSDLRKSDRGFALEFVSTRTGEPAIDPLECKAKGLTYSVPIYATARLTDMKSGEMKEEEVFLGYIPYMTDRGTFIINGAERVVVNQIVVSPGLYFSSEYIDREEYGGYFLPSRGAWLEVILDPYDGVLYAGLDGKKVNLFLFLKTIGYEKDEDILSLYPTYLDADDEDSLLLHVGSILLEDIYDGGRKIAEKWDILTKDLAERILMIDDINQIKIVHPIAQNTFEKMLEVVSSSSEEGEEEEEKTKIYGLNEVTVVDAYLEIFRRLRPEELPRINAAKRYLHDLFFNPERYDLSEVGRYKVNERLRNAYIRYLIEVEGEDPEEARKKVYNETSLVLKPLDIVLASRILFDYFERRYVNDFEIDSYELKNLIRIFKEEYLEKRKTAPYDLRKLVSVFRRNYGVTSDLGVFAAIRYVSNINKELPSIPFDTKDHLGNKRVRTVGELVQREFERLFARAQKAIQERLTLINSLSKVSIQSLINIKSIISTVNQFFAMNQLSQFMDQVNPLSELTHKRRVSAVGPGGLRRESKVFEARNVHYSQYGRLCPIETPEGANIGFITSLAIYAKIDEYGFLMTPYRKVVNGKVTDEVVYLRANEEEEYKIIPATTPVDEEGNIIPERVVARMGEDIRLVPKEEVDFMDVSTKQPFSVSASLIPFLEHDDASRALMGSNMQRQAVPLLKTEAPLVGTGMEWEAAKNSGYVILAEHDGIVKEVDAARVVVHRTDENGNLMYDDKGNPVVDEYRLLKFVRSNQDTMINQKPIVNEGDFVKKGDPIADGPATDMGELALGRNILVAFMPWEGYNYEDAILVSQELLEEDVFTSIHIEVYETQARETRLGPEEITADIPNVSKELLKNLDENGIIRVGAYVVSDYGVGSQAILVGKVTPKGEGDTTPEEKIIRSVFGERGRDVKDTSLRLPHGVEGRVIRVDVYDQNDIAELGAGVLKLVRVYVASRKTLDIGDKLAGRHGNKGVVSNILPKEDMPFLPDGTPVQMVLNPLGIPSRMNVGQILETHLGWLAKLTGKWFATPVFEGAKEDEILRPLYEERKKRGLHLGDDENNPNGKVVLRDGRTGEPFDNPVVVGYMYMLKLIHIAKEKIHARSTGPYSLIHQQPLGGKSHFGGQRLGEMEVWALEAYGAAHTLAEMLTIKSDDIKGRNEAYKAILKNMNIPEPGVPESFRVLIKELRGLALDVRLYDENGNEIDIDKY | not soluble
5 | MDALEGESFALSFSSASDAEFDAVVGYLEDIIMDDEFQLLQRNFMDKYYLEFEDTEENKLIYTPIFNEYISLVEKYIEEQLLQRIPEFNMAAFTTTLQHHKDEVAGDIFDMLLTFTDFLAFKEMFLDYRAEKEGRGLDLSSGLVVTSLCKSSSLPASQNNLRHGHHHHHH | not soluble
6 | MGSDKIHHHHHHMKKAIGILCYPSVGGSGVVATELGMKLADRGHDVHFITSSIPFRLTEYRPNITVHLVEVNQYSVFKYPPYDITLASKVAEVIDLFDLDIIHAHYAVPHAVCAELGRNMAKKKGVGVVTTLHGTDITVIGQDLEMQPAIRYGIESSDAVTAVSESLALETNITLNGQYAIEVIPNSIDESMYYPMRDERLKRHYGIEPDEIVVIHISNFRPVKRIDDTIAAFAIASKDRAMRLLLVGDGPEMGQTRRRAKELGIYDKIIFAGKQEHVAQLLAISDIHLLLSEKEAFGLVVLEAMAVGVPSVVSSAGGLPEVIQDGKTGFIVPTYDVKTAADRIGKLADDAALREELAEEGIRDTRRRFDSNQVVRAYELLYERVCAQYENA | not soluble
7 | MDNHDDKSKSDRFCDINNNMTTQFDRLSINSDASLVITSSRLAMQGADETSDWTPNKYSWFKLVTPNPVETRVVQQKAQMKGLKIHKMVHNFIPSRKQGYLGYYNFDVKSYEESEKARNLFPTDFVDAFCCQHLLGKNEQEFVFHAVNENDLKILCCIATYCKETKLDAPLDPMQHLNNLNLFYEAINNERAFIIMKDFMSDNGMKYLCRLKKDITDIRDRRNNN | not soluble
8 | MARATLACMEKITGAERSPEARDSAGAVGGADGREALVARVRAGERIKYLCFWGHRPLPDGRLGPSCLSQWWPSPFTVAGVEYATAEHWMMAGKARLFGDPEAERRVLAAAHPAGAKKAGRLVRGFDEAVWERERFRIVVEGSVHKFASDPALRVFLLATGERVLVEASPVDRVWGIGLAADDEAAVDPERWRGPNLLGFALMAARERLRAGELEHHHHHH | not soluble
9 | MSSKKNFEVGENVACIYKGKPYDAKITDIKTNSDGKELYCVHFKGWNNRYDEKIPVGEEKDRIFKGTASEYAEKHNAELPTTALKPKKKSLAAEAPRDDRDDTPGTSKGKKAKSVTIAPVMTADDMKVELPKPLRKILIDDYDLVCRYFINIVPHEYSVDQIIEDYIKTIPVSNEQMRTVDDLLIEYEEADIKITNLALICTARGLVDYFNVTLGYQLLYKFERPQYNDLVKKRAMEKGIDITNPTALQDSGFRPSQEYGIVHFLRMLAKLPDYLKLTQWNDHVINRIMIGVHDLIVFLNKNHGKYYRGSSDYQGASNDYYRRSLAADDGVGANQ | not soluble
10 | MGSDKIHHHHHHMELLNSMSKSLDQLLSLVNHSEIASIKATLSKIIEVIHNPESSVMDLKNLIEIDPPLAANVLRRANSAFYGMRRGIHSIMDAIIFIGFDAVKELTLNQKFFELFQKNGVEIHGYSRRVLWEHSIGVALCGKLIYRREFRKNGGDMYTAGLIHDIGIIVEDQFLHAELLSILADKEEHERDLHSAEADVLGYCHEDIGKRLAEDWNFPEELCLVLGEAERPETSEGPRLLLADTLYVANCACQLRKVGFSELGRLDRPAYEDCLNRLRIKERALDFIMDEVNAQIALMKNDGWF | not soluble
11 | GMTLPPYHTPLPAETLRALSIPAPWTFGLADRVRFGELDAIGHVNHTAYLRWYESFRLPFLKARHVTDYGPTSPRLVLKQVHCTYLAEMGMGEDYVITGRVSNFRTTSFTMEFACWRLGDAVECTSEGSAVVVLLNRDGSGRYPIPEAGRASFVTEDGVLAAG | soluble
12 | MTKVLFITANPNSAEGSFGMAVGEAFIEAYKNEHPQDEVVTIDLFNTTVPAIDADVFAAWGKFAAGEGFEALTEVQQQKVAAMNTNLETFMNADRYVFVTPMWNFSYPPVVKAYLDNVAIAGKTFKYTENGPVGLLEGKKALHIQATGGVYSEGAYAAVDFGRNHLKTVLGFVGVNDTEYIAVEGMNANPEKAQEIKEAAIANARELAKRF | not soluble
13 | MCMPLLPGEQQHLLIDRLEKRVPTAAGEGATTKL | not soluble
14 | MLMTIDISEESLAKESADLLKILLKDRTTKKSIVWATHSYELLGKGFAPSDRINPSKVTGNFANLIQPRSEKSKYEQKDRTKIRAEVFTPTWLVAKQNGYVESKLGSLSLEEYVDLRWLEVTCGEAPYMVTRYDTVTGEEIPLSERVGFVDRKLQRISREVSDEVTFYKLVKDAYHASYGYEYQGDSLLLARENLLATFEDYYLAKTGNQPTLEQKKEIATIISYNVFQMDGLKKSSPYSAKQKQSQQLSLFADELEVQEVEESKTHIKDWKKNRMIGFERLSSEESEMKFDVVIGNPPYQETGEARDEPIYHYFIDEAYKIADKSILITPARFLFKAGQTPKNWMEKMLEDKHLKVQFYELKSGKVFTGTDIKGGVAITYRDVDKDLGPIGVFTIFETLNGIVKKIEKHPEFETFSDLVYPQGIYRFSNKLFSDYPNAEKLQGKGTKNKIVSKSLTQLDFVFKNNEEKDHVALLGRIGSERVYRYINKKYLDLPETFENYNVFVPEANGSGALGEVLSTPLIGEPLIGHTDTFLSIGNFKTKFEADACIKFIKTKFARVLLGVLKVTQHNSRKTWYYVPLQDFTVNSDIDWTQSVTDIDRQLDQKYDLSPEEIAFIENHVREMD | not soluble
15 | MSLKEVIFVLLNEFADWEGAFIAACLNQGVMPGSPVPYKVKTLSITKEPVSSIGGFRVLPDYDLKDMPEDYAGLILIGGMSWFSPEAELIAPLIEKAIKDKKVVGGICNASVFLAMHGFLNNVKHTSNTIDYLKQHVGERYTGDSNYVDQQAVRDGKIITANGTGQLEFCREILYALEADTAEAIEKSYLFYKNGEGHHHHHH | soluble
16 | MAKGIPVLEIFGPTIQGEGMVIGQKTMFVRTAGCDYSCSWCDSAFTWDGSAKKDIRWMTAEEIFAELKDIGGDAFSHVTISGGNPALLKQLDAFIELLKENNIRAALETQGTVYQDWFTLIDDLTISPKPPSSKMVTNFQKLDHILTSLQENDRQHAVSLKVVIFNDEDLEFAKTVHKRYPGIPFYLQVGNDDVHTTDDQSLIAHLLGKYEALVDKVAVDAELNLVRVLPQLHTLLWGNKRGV | not soluble
17 | MTFQKHVAHTQPAKLATTPSPPGTATTPSLMSEDDDHRTITESQEKRRSWLERLSAAFSGDPHTLDDLMVILRSAEHHGIIATDTLRMMEGAIAIADLTVGDVMVPRSQMVSLPVESDLQTITKQMVESGHSRFPVHGENKDEVLGILLAKDLLRGVSANHTITNVHELLRPVGMIPESKKLNVLLKEFRLSHNHMAIVVDEYGGVAGLVTIEDILEQIVGDIDDEHDETEDQTNMIAIQADGCYIVDALTPIEDFNERFNAEFPDDDYDTIGGLVTEAIGHLPETGDELTIGRFAFRVAKANARRIHILHVTVLPPNEQNTA | not soluble
